Results from the supplement of paper PMC7877785.
± gives the uncertainty stated by the source.

Assay: self-splicing fitness, log relative to wild type (ln ratio); higher = more splicing; Tetrahymena group I intron in knt gene, E. coli kanamycin selection, DiMSum; sequences stand for … in CUCUCU…GGAGGGAAAAGUUAUCAGGCAUGCACCUGGUAGCUAGUCUUUAAACCAAUAGAUUGCAUCGGUUUAAAAGGCAAGACCGUCAAAUUGCGGGAAAGGGGUCAACAGCCGUUCAGUACCAAGUCUCAGGGGAAACUUUGAGAUGGCCUUGCAAAGGGUAUGGUAAUAAGCUGACGGACAUGGUCCUAACCACGCAGCCAAGUCCUAAGUCAACAGAUCUUCUGUUGAUAUGGAUGCAGUUCACAGACUAAAUGUCGGUCGGGGAAGAUGUAUUCUUCUCAUAAGAUAUAGUCGGACCUCUCCUUAAUGGGAGCUAGCGGAUGAAGUGAUGCAACACUGGAGCCGCUGGGAACUAAUUUGUAUGCGAAAGUAUAUUGAUUAGUUUUGGAGUACUCGUGGUCG
Method in brief: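 DiMSum derived fitness as the error-weighted combination of fold changes across replicates, kanamycin versus no kanamycin, normalised to wild type. E. coli BL21(DE3) held the library, which randomised all eight P1ex-region intron nucleotides within the knt kanamycin-resistance gene on pET-22b(+). Six replicate transformations grew overnight at 37°C or 30°C on LB agar with or without 25 μg/mL kanamycin, also containing 100 μg/mL carbenicillin, 50 μM IPTG and 0.2% rhamnose, and pooled colonies were amplicon-sequenced on an Illumina HiSeq 2500.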

| Sequence | self-splicing fitness (ln) (30 °C) | self-splicing fitness (ln) (37 °C) |
| --- | --- | --- |
| CCGUAGCAAUAUUACGCGGC | -2.94 ± 0.19 | -2.51 ± 0.27 |
| CCGUAGCAAUAUUACGGCGU | -2.57 ± 0.23 | -1.86 ± 0.25 |
| CCGUAGCAAUAUUACGGGAG | -3.35 ± 0.19 | -2.97 ± 0.18 |
| CCGUAGCAAUAUUACGGUCC | -4.14 ± 0.3 | -2.93 ± 0.28 |
| CCGUAGCAAUAUUACGUAGC | -3.91 ± 0.21 | -2.63 ± 0.22 |
| CCGUAGCAAUAUUACGUAUC | – | -2.65 ± 0.29 |
| CCGUAGCAAUAUUACGUGGU | -4.27 ± 0.24 | -2.12 ± 0.14 |
| CCGUAGCAAUAUUACGUUGC | -3.53 ± 0.28 | -2.04 ± 0.43 |
| CCGUAGCAAUAUUACGUUUA | -3.43 ± 0.44 | -3.04 ± 0.4 |
| CCUAAGCAAUAUUACGAAAA | -3.53 ± 0.28 | -2.44 ± 0.19 |
| CCUAAGCAAUAUUACGAAAC | -3.48 ± 0.33 | – |
| CCUAAGCAAUAUUACGAAUA | -3.51 ± 0.35 | – |
| CCUAAGCAAUAUUACGAUUU | -3.8 ± 0.25 | -0.794 ± 0.23 |
| CCUAAGCAAUAUUACGCAUG | -3.6 ± 0.33 | -1.51 ± 0.23 |
| CCUAAGCAAUAUUACGCGCG | -3.42 ± 0.39 | -1.9 ± 0.25 |
| CCUAAGCAAUAUUACGCGUG | -3.34 ± 0.13 | -2.48 ± 0.13 |
| CCUAAGCAAUAUUACGCUCG | – | -2.15 ± 0.3 |
| CCUAAGCAAUAUUACGGAUA | -4.31 ± 0.26 | -4.12 ± 0.31 |
| CCUAAGCAAUAUUACGGGGA | -2.84 ± 0.15 | -1.92 ± 0.13 |
| CCUAAGCAAUAUUACGGUCU | -3.89 ± 0.31 | -2.94 ± 0.34 |
| CCUAAGCAAUAUUACGGUGG | -2.76 ± 0.11 | -2.03 ± 0.14 |
| CCUAAGCAAUAUUACGGUUA | -3.71 ± 0.16 | -2.67 ± 0.14 |
| CCUAAGCAAUAUUACGGUUG | -3.92 ± 0.19 | -2.07 ± 0.15 |
| CCUAAGCAAUAUUACGUAAC | -2.97 ± 0.17 | -1.77 ± 0.29 |
| CCUAAGCAAUAUUACGUCGC | -2.21 ± 0.16 | -1.85 ± 0.2 |

| Sequence | self-splicing fitness (ln) (30 °C) | self-splicing fitness (ln) (37 °C) |
| --- | --- | --- |
| CCUAAGCAAUAUUACGUGAA | – | -1.96 ± 0.26 |
| CCUAAGCAAUAUUACGUGAU | -4.46 ± 0.23 | -2.71 ± 0.21 |
| CCUAAGCAAUAUUACGUGCG | -2.59 ± 0.13 | -1.03 ± 0.12 |
| CCUAAGCAAUAUUACGUGUU | -3.2 ± 0.14 | -3.07 ± 0.19 |
| CCUCAGCAAUAUUACGAGAG | -2.75 ± 0.13 | -1.47 ± 0.1 |
| CCUCAGCAAUAUUACGAGCC | -0.962 ± 0.25 | -0.207 ± 0.41 |
| CCUCAGCAAUAUUACGAUAA | -2.82 ± 0.16 | -3.35 ± 0.32 |
| CCUCAGCAAUAUUACGAUAU | -4.25 ± 0.25 | -0.929 ± 0.15 |
| CCUCAGCAAUAUUACGCCUC | -3.76 ± 0.35 | -1.75 ± 0.31 |
| CCUCAGCAAUAUUACGCUCG | -2.8 ± 0.16 | -2.96 ± 0.24 |
| CCUCAGCAAUAUUACGGGCG | -1.59 ± 0.069 | -0.619 ± 0.074 |
| CCUCAGCAAUAUUACGGUAA | -3.97 ± 0.25 | -2.47 ± 0.18 |
| CCUCAGCAAUAUUACGGUCG | -0.693 ± 0.069 | -0.505 ± 0.089 |
| CCUCAGCAAUAUUACGGUGA | -3.68 ± 0.28 | -2.28 ± 0.2 |
| CCUCAGCAAUAUUACGGUUC | -3.33 ± 0.14 | -3.16 ± 0.27 |
| CCUCAGCAAUAUUACGUACU | -3.42 ± 0.22 | -1.98 ± 0.22 |
| CCUCAGCAAUAUUACGUAUA | -3.44 ± 0.19 | -3.16 ± 0.32 |
| CCUCAGCAAUAUUACGUCAC | -3.97 ± 0.27 | -2.36 ± 0.26 |
| CCUCAGCAAUAUUACGUCUA | -3.41 ± 0.26 | -2.46 ± 0.28 |
| CCUCAGCAAUAUUACGUGCG | -2.51 ± 0.11 | -1.71 ± 0.12 |
| CCUCAGCAAUAUUACGUUCA | -2.61 ± 0.16 | -2.68 ± 0.3 |
| CCUCAGCAAUAUUACGUUGA | -3.03 ± 0.14 | -2.28 ± 0.14 |
| CCUGAGCAAUAUUACGAAGA | -1.76 ± 0.18 | -1.69 ± 0.19 |
| CCUGAGCAAUAUUACGAAGG | -3.87 ± 0.3 | -2.36 ± 0.32 |
| CCUGAGCAAUAUUACGACAG | -1.3 ± 0.14 | -0.663 ± 0.15 |

| Sequence | self-splicing fitness (ln) (30 °C) | self-splicing fitness (ln) (37 °C) |
| --- | --- | --- |
| CCUGAGCAAUAUUACGAGAU | -1.86 ± 0.16 | -2.09 ± 0.23 |
| CCUGAGCAAUAUUACGAGCA | -3.49 ± 0.27 | -3.47 ± 0.3 |
| CCUGAGCAAUAUUACGAGGA | -3.04 ± 0.45 | -1.57 ± 0.18 |
| CCUGAGCAAUAUUACGCCAA | -2.85 ± 0.44 | – |
| CCUGAGCAAUAUUACGCCGC | -2.83 ± 0.5 | 0.153 ± 0.33 |
| CCUGAGCAAUAUUACGCCUU | -2.73 ± 0.28 | -2.01 ± 0.2 |
| CCUGAGCAAUAUUACGCUCG | -2.14 ± 0.43 | -1.7 ± 0.41 |
| CCUGAGCAAUAUUACGGAAU | -4.68 ± 0.23 | -2.85 ± 0.16 |
| CCUGAGCAAUAUUACGGCUA | -1.85 ± 0.33 | – |
| CCUGAGCAAUAUUACGGCUC | -3.81 ± 0.37 | -2.97 ± 0.41 |
| CCUGAGCAAUAUUACGGUAG | -3.11 ± 0.2 | -2.26 ± 0.2 |
| CCUGAGCAAUAUUACGGUGG | -3.67 ± 0.37 | -1.4 ± 0.2 |
| CCUGAGCAAUAUUACGUGGG | -3.25 ± 0.15 | -2.85 ± 0.2 |
| CCUGAGCAAUAUUACGUUUC | -3.69 ± 0.25 | -2.81 ± 0.28 |
| CCUUAGCAAUAUUACGACCC | -2.95 ± 0.44 | – |
| CCUUAGCAAUAUUACGAGUU | -3.96 ± 0.27 | -2.56 ± 0.21 |
| CCUUAGCAAUAUUACGAUAC | -1.67 ± 0.44 | – |
| CCUUAGCAAUAUUACGCACA | -1.93 ± 0.28 | -1.06 ± 0.21 |
| CCUUAGCAAUAUUACGCACU | -2.46 ± 0.41 | -1.29 ± 0.22 |
| CCUUAGCAAUAUUACGCUAC | -2.32 ± 0.27 | -2.26 ± 0.27 |
| CCUUAGCAAUAUUACGCUUC | -3.71 ± 0.31 | -1.83 ± 0.24 |
| CCUUAGCAAUAUUACGGAAA | -3.07 ± 0.24 | – |
| CCUUAGCAAUAUUACGGAUC | -3.45 ± 0.47 | -3.6 ± 0.34 |
| CCUUAGCAAUAUUACGGCGA | -4.24 ± 0.39 | -1.96 ± 0.2 |
| CCUUAGCAAUAUUACGGGAC | -3.96 ± 0.46 | – |

| Sequence | self-splicing fitness (ln) (30 °C) | self-splicing fitness (ln) (37 °C) |
| --- | --- | --- |
| CCUUAGCAAUAUUACGUACA | -3.88 ± 0.42 | -2.22 ± 0.3 |
| CCUUAGCAAUAUUACGUACU | -2.32 ± 0.23 | -1.99 ± 0.21 |
| CCUUAGCAAUAUUACGUAUU | -4.45 ± 0.29 | -2.82 ± 0.22 |
| CCUUAGCAAUAUUACGUCGU | -3.7 ± 0.25 | -2.13 ± 0.22 |
| CCUUAGCAAUAUUACGUGGU | -4.41 ± 0.36 | -1.91 ± 0.23 |
| CGAAAGCAAUAUUACGAAAG | -0.96 ± 0.073 | -0.475 ± 0.11 |
| CGAAAGCAAUAUUACGAAGU | -3.07 ± 0.15 | -1.84 ± 0.19 |
| CGAAAGCAAUAUUACGAGAA | -2.51 ± 0.49 | – |
| CGAAAGCAAUAUUACGCAAA | -2.59 ± 0.26 | -2.35 ± 0.32 |
| CGAAAGCAAUAUUACGCACA | -0.831 ± 0.11 | -0.358 ± 0.16 |
| CGAAAGCAAUAUUACGCCGC | – | -2.13 ± 0.36 |
| CGAAAGCAAUAUUACGCGUC | – | -0.242 ± 0.19 |
| CGAAAGCAAUAUUACGCGUU | -4 ± 0.18 | -2.85 ± 0.2 |
| CGAAAGCAAUAUUACGCUCG | -3.71 ± 0.3 | -2.26 ± 0.22 |
| CGAAAGCAAUAUUACGCUCU | -2.56 ± 0.14 | -1.56 ± 0.15 |
| CGAAAGCAAUAUUACGCUUC | -2.95 ± 0.38 | -2.01 ± 0.39 |
| CGAAAGCAAUAUUACGGACU | -0.69 ± 0.053 | 0.357 ± 0.079 |
| CGAAAGCAAUAUUACGGAGG | -0.982 ± 0.097 | -1.45 ± 0.14 |
| CGAAAGCAAUAUUACGGCAG | -0.162 ± 0.081 | 0.194 ± 0.1 |
| CGAAAGCAAUAUUACGGCGG | -0.187 ± 0.067 | 0.456 ± 0.093 |
| CGAAAGCAAUAUUACGGGUC | -4 ± 0.3 | -3.76 ± 0.34 |
| CGAAAGCAAUAUUACGUACA | -1.25 ± 0.14 | -1.23 ± 0.15 |
| CGAAAGCAAUAUUACGUACG | -1.5 ± 0.076 | -1.27 ± 0.11 |
| CGAAAGCAAUAUUACGUAGG | -0.721 ± 0.067 | -0.28 ± 0.096 |
